Reference: PMC6431553
Like-named read-outs stand apart in the source and are kept apart here.

Legend:
[1] = biological target: recombinant murine PrP 23–231 (murine) (UniProt P04925); assay: ELISA
[2] = biological target: recombinant murine PrP 23–231 (murine) (UniProt P04925); assay: ELISA; remark: listed apart in the source

UniProt P04925, sequence (P04925 23-231): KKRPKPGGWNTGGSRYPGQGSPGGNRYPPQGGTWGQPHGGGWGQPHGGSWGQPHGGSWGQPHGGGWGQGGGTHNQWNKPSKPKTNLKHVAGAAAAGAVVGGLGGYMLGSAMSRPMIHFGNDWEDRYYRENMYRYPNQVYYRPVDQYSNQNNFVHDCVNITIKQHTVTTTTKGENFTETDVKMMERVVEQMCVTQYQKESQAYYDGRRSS

Aβ1–42 fibrils (peptide)
EC50 [1]: 1730 nM

Aβ-derived diffusible ligands (ADDLs), a preparation of Aβ1–42 (peptide)
EC50 [2]: 113 nM | EC50 [1]: 234 nM
